± gives the standard error. For some assays here: Variants at the floor of the assay were thinned out.

First the molecules themselves.
B1: glmS ribozyme (parent)
chain: AUAAAAGCGCCAGAACUACAGAAAUGUAGUUGACGAGGAGGAGGUUUAUCGAAUUUUCGGCGGAUGCCUCCAAA

Details in all cases: with glucosamine-6-phosphate
In series [1] the parent is B1. The series is described as follows: kcat; higher = faster cleavage; RNA array. The gist of the method: (§1)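 Tiles of sequenced MiSeq chips were imaged over ~14 h at 37 °C. On them, barcoded ribozyme variants had been transcribed in situ by E. coli RNA polymerase and were tracked via a hybridised Cy3 probe while glucosamine-6-phosphate (40 μM to 10 mM) in HEPES/KCl/Mg(OAc)2 buffer flowed in. Per-tile medians, normalised to baseline and to non-cleaving reference variants, were fit to one- or two-exponential decays for kobs, and weighted Michaelis–Menten fits gave kcat and KM.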

Series [2] covers variants of B1. The series is described as follows: KM; higher = weaker cofactor use; RNA array. The gist of the method:
as §1

Variants of B1 are the subject of series [3]. The series is described as follows: self-cleavage kobs at 40 uM GlcN6P; higher = faster cleavage; RNA array. The gist of the method:
as §1

The variants in series [4] derive from B1. The series can be described thus: self-cleavage kobs at 160 uM GlcN6P; higher = faster cleavage; RNA array. The gist of the method: as §1
In series [5] the parent is B1. The series can be described thus: self-cleavage kobs at 640 uM GlcN6P; higher = faster cleavage; RNA array. The method, boiled down: as §1
Variants of B1 are the subject of series [6]. The series is described as follows: self-cleavage kobs at 2500 uM GlcN6P; higher = faster cleavage; RNA array. The method, boiled down:
as §1

Series [7] covers variants of B1. The series is described as follows: self-cleavage kobs at 10000 uM GlcN6P; higher = faster cleavage; RNA array. The gist of the method: as §1

With A12C G40U, the kcat with glucosamine-6-phosphate [1] stood at 0.00214 ± 0.00032 s⁻¹. Further, the KM with glucosamine-6-phosphate [2] is 2490 ± 550 µM. Moreover, the “self-cleavage kobs at 40 uM GlcN6P” value with glucosamine-6-phosphate [3] was determined as 4.4e-05 ± 6.1e-06 s⁻¹. The “self-cleavage kobs at 160 uM GlcN6P” value with glucosamine-6-phosphate [4] turned out to be 0.000109 ± 1.2e-05 s⁻¹. The “self-cleavage kobs at 640 uM GlcN6P” value with glucosamine-6-phosphate [5] came to 0.000471 ± 5e-05 s⁻¹. Besides, the “self-cleavage kobs at 2500 uM GlcN6P” value with glucosamine-6-phosphate [6] was 0.0012 ± 0.00012 s⁻¹. Also, in the series with glucosamine-6-phosphate [7], the “self-cleavage kobs at 10000 uM GlcN6P” value came to 0.00165 ± 0.00013 s⁻¹.

Take C61A C71U: the kcat with glucosamine-6-phosphate [1] amounted to 1.05e-05 ± 3.5e-06 s⁻¹. Also, in the series with glucosamine-6-phosphate [5], the “self-cleavage kobs at 640 uM GlcN6P” value was below 1e-05 s⁻¹.

For the variant G63A C68A, the kcat with glucosamine-6-phosphate [1] was 2.09e-05 ± 4.7e-06 s⁻¹.

On to A12G G38U A39U, for which the kcat in the series with glucosamine-6-phosphate [1] is below 1e-05 s⁻¹. The “self-cleavage kobs at 40 uM GlcN6P” value with glucosamine-6-phosphate [3] is below 1e-05 s⁻¹. Moreover, in the series with glucosamine-6-phosphate [5], the “self-cleavage kobs at 640 uM GlcN6P” value was below 1e-05 s⁻¹.

Consider G51U G60C, for which the kcat in the series with glucosamine-6-phosphate [1] was found to be 1.97e-05 ± 5.9e-06 s⁻¹.

As for G40U U56C, in the series with glucosamine-6-phosphate [1], the kcat was determined as 1.13e-05 ± 5.2e-06 s⁻¹. Also, in the series with glucosamine-6-phosphate [3], the “self-cleavage kobs at 40 uM GlcN6P” value was below 1e-05 s⁻¹.

With A15G G51U C71A, the kcat with glucosamine-6-phosphate [1] came to 1.45e-05 ± 1.7e-06 s⁻¹. In addition, the KM in the series with glucosamine-6-phosphate [2] is 510 ± 210 µM. Also, the “self-cleavage kobs at 10000 uM GlcN6P” value in the series with glucosamine-6-phosphate [7] was below 1e-05 s⁻¹.

Consider G43A U45G C58G, for which the kcat in the series with glucosamine-6-phosphate [1] was 2.82e-05 ± 8e-07 s⁻¹. Besides, in the series with glucosamine-6-phosphate [2], the KM was found to be 199 ± 61 µM.

For A33G G59U C68A C71A, the kcat with glucosamine-6-phosphate [1] came out at 2.2e-05 ± 6.5e-06 s⁻¹.

A42G U46G: the kcat in the series with glucosamine-6-phosphate [1] was determined as 0.017 ± 0.0083 s⁻¹. In addition, the “self-cleavage kobs at 40 uM GlcN6P” value with glucosamine-6-phosphate [3] is 0.000254 ± 6.6e-05 s⁻¹. Besides, the “self-cleavage kobs at 160 uM GlcN6P” value with glucosamine-6-phosphate [4] is 0.000694 ± 0.00017 s⁻¹. The “self-cleavage kobs at 640 uM GlcN6P” value with glucosamine-6-phosphate [5] was found to be 0.00167 ± 0.00038 s⁻¹. Moreover, in the series with glucosamine-6-phosphate [6], the “self-cleavage kobs at 2500 uM GlcN6P” value turned out to be 0.0074 ± 0.0015 s⁻¹. Also, the “self-cleavage kobs at 10000 uM GlcN6P” value with glucosamine-6-phosphate [7] was 0.0115 ± 0.0033 s⁻¹.

In the case of C67A, in the series with glucosamine-6-phosphate [1], the kcat stood at 0.0168 ± 0.0027 s⁻¹. Also, the KM with glucosamine-6-phosphate [2] is 1730 ± 380 µM. In addition, the “self-cleavage kobs at 40 uM GlcN6P” value with glucosamine-6-phosphate [3] is 0.000434 ± 1.5e-05 s⁻¹. In addition, the “self-cleavage kobs at 160 uM GlcN6P” value in the series with glucosamine-6-phosphate [4] was determined as 0.00132 ± 8.4e-05 s⁻¹. Moreover, the “self-cleavage kobs at 640 uM GlcN6P” value with glucosamine-6-phosphate [5] turned out to be 0.004 ± 0.00015 s⁻¹. The “self-cleavage kobs at 2500 uM GlcN6P” value with glucosamine-6-phosphate [6] came to 0.0101 ± 0.00044 s⁻¹. For the same variant, the “self-cleavage kobs at 10000 uM GlcN6P” value with glucosamine-6-phosphate [7] stood at 0.0155 ± 0.00076 s⁻¹.

As to U31C U46G, the catalytic constant (kcat) in the series with glucosamine-6-phosphate [1] turned out to be 0.000788 ± 0.00029 s⁻¹. In the series with glucosamine-6-phosphate [5], the “self-cleavage kobs at 640 uM GlcN6P” value worked out at 0.000198 ± 3.6e-05 s⁻¹. The “self-cleavage kobs at 2500 uM GlcN6P” value with glucosamine-6-phosphate [6] was 0.000722 ± 0.00013 s⁻¹. In addition, in the series with glucosamine-6-phosphate [7], the “self-cleavage kobs at 10000 uM GlcN6P” value is 0.000568 ± 7.8e-05 s⁻¹.

For the variant A48U C71G, the catalytic constant (kcat) with glucosamine-6-phosphate [1] came to 4.92e-05 ± 1e-05 s⁻¹. In addition, the “self-cleavage kobs at 640 uM GlcN6P” value with glucosamine-6-phosphate [5] was found to be 4.04e-05 ± 7.5e-06 s⁻¹. The “self-cleavage kobs at 2500 uM GlcN6P” value with glucosamine-6-phosphate [6] was 6.5e-05 ± 9.8e-06 s⁻¹. Further, the “self-cleavage kobs at 10000 uM GlcN6P” value with glucosamine-6-phosphate [7] is 3.69e-05 ± 8e-06 s⁻¹.

In the case of U31C A64U, the turnover number (kcat) in the series with glucosamine-6-phosphate [1] is below 1e-05 s⁻¹.

Consider A6U U30G, for which, in the series with glucosamine-6-phosphate [1], the catalytic constant (kcat) stood at 4.09e-05 ± 8.6e-06 s⁻¹. The “self-cleavage kobs at 40 uM GlcN6P” value in the series with glucosamine-6-phosphate [3] is below 1e-05 s⁻¹. The “self-cleavage kobs at 2500 uM GlcN6P” value with glucosamine-6-phosphate [6] amounted to 4.14e-05 ± 1.3e-05 s⁻¹. Also, in the series with glucosamine-6-phosphate [7], the “self-cleavage kobs at 10000 uM GlcN6P” value was found to be 3.5e-05 ± 9.7e-06 s⁻¹.

Consider C11G C50G, for which the kcat with glucosamine-6-phosphate [1] was found to be 0.000265 ± 6.8e-05 s⁻¹. Further, in the series with glucosamine-6-phosphate [3], the “self-cleavage kobs at 40 uM GlcN6P” value stood at 6.35e-05 ± 1.4e-05 s⁻¹. For the same variant, the “self-cleavage kobs at 160 uM GlcN6P” value with glucosamine-6-phosphate [4] stood at 0.00024 ± 4.8e-05 s⁻¹. Moreover, the “self-cleavage kobs at 640 uM GlcN6P” value with glucosamine-6-phosphate [5] came to 0.000352 ± 7.5e-05 s⁻¹. Besides, the “self-cleavage kobs at 2500 uM GlcN6P” value with glucosamine-6-phosphate [6] was 0.000209 ± 5e-05 s⁻¹. Besides, in the series with glucosamine-6-phosphate [7], the “self-cleavage kobs at 10000 uM GlcN6P” value was determined as 0.000187 ± 9.3e-05 s⁻¹.

Take C11U U65G C68U: in the series with glucosamine-6-phosphate [1], the kcat came to 6.35e-05 ± 2.3e-05 s⁻¹. Also, the “self-cleavage kobs at 2500 uM GlcN6P” value with glucosamine-6-phosphate [6] was found to be 0.000106 ± 3.6e-05 s⁻¹. In addition, in the series with glucosamine-6-phosphate [7], the “self-cleavage kobs at 10000 uM GlcN6P” value is 5.53e-05 ± 1.2e-05 s⁻¹.

Regarding U49G G66A, in the series with glucosamine-6-phosphate [1], the kcat is 0.000689 ± 0.00024 s⁻¹. The KM in the series with glucosamine-6-phosphate [2] was 6210 ± 3000 µM. For the same variant, the “self-cleavage kobs at 640 uM GlcN6P” value with glucosamine-6-phosphate [5] amounted to 5.55e-05 ± 1.3e-05 s⁻¹. For the same variant, the “self-cleavage kobs at 2500 uM GlcN6P” value in the series with glucosamine-6-phosphate [6] stood at 0.00024 ± 3.6e-05 s⁻¹. The “self-cleavage kobs at 10000 uM GlcN6P” value with glucosamine-6-phosphate [7] turned out to be 0.000375 ± 9.3e-05 s⁻¹.

In the case of U31G A33C, the turnover number (kcat) in the series with glucosamine-6-phosphate [1] amounted to 3.39e-05 ± 1.6e-06 s⁻¹. Besides, the KM with glucosamine-6-phosphate [2] was 4180 ± 650 µM. Moreover, in the series with glucosamine-6-phosphate [7], the “self-cleavage kobs at 10000 uM GlcN6P” value was 2.4e-05 ± 8.6e-06 s⁻¹.

C58G C68U: in the series with glucosamine-6-phosphate [1], the kcat was 4.76e-05 ± 7e-06 s⁻¹. Besides, in the series with glucosamine-6-phosphate [4], the “self-cleavage kobs at 160 uM GlcN6P” value amounted to 7.05e-05 ± 1.9e-05 s⁻¹. In the series with glucosamine-6-phosphate [5], the “self-cleavage kobs at 640 uM GlcN6P” value is 5.45e-05 ± 1.2e-05 s⁻¹. Further, the “self-cleavage kobs at 2500 uM GlcN6P” value in the series with glucosamine-6-phosphate [6] was found to be 4.14e-05 ± 1.3e-05 s⁻¹. Further, the “self-cleavage kobs at 10000 uM GlcN6P” value in the series with glucosamine-6-phosphate [7] was found to be 4.34e-05 ± 7.8e-06 s⁻¹.

As for U31G G37U, the kcat with glucosamine-6-phosphate [1] is below 1e-05 s⁻¹.

For the origin of these results see the supplement of paper PMC7125110.
